One assay addresses mouse PSMA (mouse, UniProt O35409 45-752, limits assumed). The assay is described as follows: ELISA, Biacore and/or FACS (not said which for mouse). In general terms: An ELISA detects its analyte on a solid surface through an enzyme-linked reagent.
In the next assay the target is T1, human PSMA (human, UniProt Q04609 44-750).
T1 construct: also called hPSMA; Human PSMA dimer (DT1596)
The experiment in a line: FACS on hPSMA (FIG. 2).

T1 sequence (Q04609 44-750 limits assumed): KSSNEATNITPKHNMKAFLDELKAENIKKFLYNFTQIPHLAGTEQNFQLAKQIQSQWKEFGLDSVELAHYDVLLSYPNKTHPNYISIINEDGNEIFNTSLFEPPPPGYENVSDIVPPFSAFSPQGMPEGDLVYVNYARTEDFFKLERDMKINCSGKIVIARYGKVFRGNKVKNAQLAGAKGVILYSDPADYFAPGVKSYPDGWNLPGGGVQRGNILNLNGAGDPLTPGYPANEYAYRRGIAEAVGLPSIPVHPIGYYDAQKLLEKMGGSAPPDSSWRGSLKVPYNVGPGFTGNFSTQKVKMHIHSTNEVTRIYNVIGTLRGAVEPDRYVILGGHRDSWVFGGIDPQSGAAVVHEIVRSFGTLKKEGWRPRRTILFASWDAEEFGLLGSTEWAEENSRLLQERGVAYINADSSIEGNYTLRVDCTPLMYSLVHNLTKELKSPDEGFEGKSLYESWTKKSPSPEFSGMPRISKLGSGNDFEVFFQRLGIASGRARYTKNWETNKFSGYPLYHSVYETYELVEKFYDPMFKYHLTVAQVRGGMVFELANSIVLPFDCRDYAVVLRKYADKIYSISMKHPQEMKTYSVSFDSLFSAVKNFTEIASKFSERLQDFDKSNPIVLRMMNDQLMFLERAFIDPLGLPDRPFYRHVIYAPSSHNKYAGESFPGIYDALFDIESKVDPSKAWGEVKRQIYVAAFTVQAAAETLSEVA
Sequence of mouse PSMA (O35409 45-752 limits assumed): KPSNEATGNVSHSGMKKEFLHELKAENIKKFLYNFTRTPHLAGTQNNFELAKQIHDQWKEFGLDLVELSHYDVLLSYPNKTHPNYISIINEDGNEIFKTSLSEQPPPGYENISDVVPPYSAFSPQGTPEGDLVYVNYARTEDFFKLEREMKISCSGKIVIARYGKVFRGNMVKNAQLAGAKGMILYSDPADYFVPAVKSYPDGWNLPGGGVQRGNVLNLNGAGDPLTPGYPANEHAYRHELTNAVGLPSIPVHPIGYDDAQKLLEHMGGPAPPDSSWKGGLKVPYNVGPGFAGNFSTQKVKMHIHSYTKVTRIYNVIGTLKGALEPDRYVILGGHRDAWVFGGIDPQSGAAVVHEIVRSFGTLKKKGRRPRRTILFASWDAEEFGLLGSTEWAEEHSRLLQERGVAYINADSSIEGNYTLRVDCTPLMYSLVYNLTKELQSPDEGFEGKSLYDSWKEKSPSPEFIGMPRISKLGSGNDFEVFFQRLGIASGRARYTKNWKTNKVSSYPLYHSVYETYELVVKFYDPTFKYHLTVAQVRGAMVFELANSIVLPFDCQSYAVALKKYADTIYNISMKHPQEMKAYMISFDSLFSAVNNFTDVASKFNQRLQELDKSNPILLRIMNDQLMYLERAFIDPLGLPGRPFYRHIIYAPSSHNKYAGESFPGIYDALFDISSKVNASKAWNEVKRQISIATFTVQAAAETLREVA

B1: cHv75-2a11.G1(L328C)k (antibody, human IgG1, kappa, V domains shown)
VH: QVQLVESGGGVVQPGRSLRLSCAASGFTFSSYDMHWVRQAPGKGLEWVAVIWYDGSNKYYADSLKGRFTISRDNSKNTLYLQMNSLRAEDTAVYYCARVIAARTFYYYGMDVWGQGTTVTVSS
VL: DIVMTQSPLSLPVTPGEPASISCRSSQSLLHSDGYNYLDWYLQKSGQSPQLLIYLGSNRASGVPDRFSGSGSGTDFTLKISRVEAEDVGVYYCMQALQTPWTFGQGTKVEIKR
notes: also called [Ag]AB-4; cHv75-2a11.G1(1,328C)k
Take B1: the binding result is reported as “no binding” in the assay with mouse PSMA and “binds” with human PSMA.

B2: cHv75-2a7.G1(C99Y;L328C)k (antibody, V domains shown)
VH: EVQLVESGGGLVQPGGSLRLSCAASGITFSNYWMSWVRQAPGKGLEWVANIKKDGSEKFYVDSVKGRFTISRDNAKNSLYLQINSLRAEDTAMYYCAREIQLYLQHWGQGTLVTVSS
VL: DIQMTQSPSSVSASVGGRVTITCRASQGISNWLAWYQQKPGKAPKLLIYAASSLQSGVPSRFSGSGSGTDFTLTISNLQPEDFASYYCQQANSFPLTFGGGTKVEIKR
notes: also called [Ag]AB-5
With B2, the results for the binding result in the assay with mouse PSMA and with human PSMA were “no binding” and “binds”, respectively.

These data come from US20230059690A1 (CYTOMX THERAPEUTICS, published 2023).
